The target in the assay is amyloid beta (Aβ) peptide Aβ42.

A word on the stoichiometry N: it is the number of molecules, sites or subunits per partner or assembly.

In the case of amyloid beta (Aβ) peptide Aβ42, the stoichiometry N was below 4.
